Measurements published in patent US20220185900A1.

The binders below were run against human RET on cells (MCF7/SRE-Luc; HEK293/hGFRα3/hRET/SRE-Luc; HEK293/hGFRα1/hRET/SRE-Luc) (human), P07949 (assay: cell-based or functional assay).

| Binder | MCF7/SRE-Luc % Activation [%] | MCF7/SRE-Luc Avg % Blocking [%] | MCF7/SRE-luc Avg. IC50 [nM] | 293/hGFRα3/hRET SRE-luc % Blocking [%] | 293/hGFRα3/hRET/SRE-Luc IC50 [nM] | Internalization (% H4H8087P), HEK293/hGFRa1/hRET/SRE-Luc cells, 37 C [%] |
| --- | --- | --- | --- | --- | --- | --- |
| H4H8062P (antibody, human IgG4, V domains shown) VH: EVQLVESGGGLVQPGGSLRLSCSVSGFIFKNYAMRWVRQAPGKGLEWVSGISGSGGITYYADSVRGRVTISRDNSKNTLDLQMTNLRAEDTAVYYCAKAEYSSSGAYFDYWGQGTLVTVSS VL: DIQMTQSPSSLSASVGDRVTITCRASQSIHNYLNWYLQRPGKAPKLLVYAASSLQSGVPSRFSGRGSGTDFTLTISSLQPEDFATYYCQQSYSAPYSFGQGTKLEIK | 0 | 100 | 5.2 | – | – | 44.9 |
| H4H8066P (antibody, human IgG4, V domains shown) VH: EVQLVESGGGLVQPGGSLRLSCEASGFTFSRYAMTWVRQAPGKGLEWVSGISGSGGSTFYVDSLQGRFTLSRDNSKHTLFLQMNSLRAEDTAIYYCAKENTYGHFDYWGQGTLVTVSS VL: DIQLTQSPSFLSASVGDRVTITCWASQDISTYLAWYQQKPGKAPQVLIYAASSLQYGVPSRFSGSGSGTEFTLTITSLQPEDFATYYCQQLIGYPYIFGQGTKLEIK | 0 | 60 | 0.39 | 93 | 1.5 | – |
| H4H8071P (antibody, human IgG4, V domains shown) VH: EVQLVESGGGLVQPGGSLRLSCAASGFTFTTYFMSWVRQAPGKGLEWVSGISGSGTSTFYVDSMKGRFTISRDNSKNTLYLQMNSLRVEDTAVYFCAKENTYGHFDFWGQGTLVTVSS VL: DIQLTQSPSFLSASVGDRVTITCWASQDISSHLAWYQQKPGKAPKVLIYDASTLQSGVPSRISGSGSGTEFTLTISSLQPEDFAAYYCQQLDGYPYTFGQGTKLEIK | 0 | 84 | 0.45 | – | – | – |
| H4H8058P (antibody, human IgG4, V domains shown) VH: QVQLVESGGGVGQPGRSLRLSCVASGFTFRNYGMHWVRQAPGKGLDWVAIIGYDGSKEYNVDSVKGRFTISRDNSKNTLYLQMNSLGAEDTAIYYCARESPITGTTFDYWGQGTLVTVSS VL: DIQMTQSPPSLSASVGDRVTITCRASQSIGNYLNWYQQKPGKAPKILIYAASRLQSGVPSRFSGSGSGTDFTLTISSLQPEDFATYYCQQSYSTPLTFGGGTKVEIK | 0 | 85 | 5.4 | – | – | 42 |
| H4H8067P (antibody, human IgG4, V domains shown) VH: QVQLVESGGGVVQPGRSLRLSCVASGFTFSNYGMHWVRQAPGKGLEWVALIWYDGSNKYFADSVKGRFTISRDNSKRMMFLEMNSLRAEDTAIYYCTRDRLFDFWGQGTLVTVSS VL: AIQMTQSPSSLSASVGDRVSITCRASQDIRHDLGWFHQKPGKAPKLLIYAASTLQSGVPSRFGGSGSGTDFTLTITSLQPEDFGTYYCLQDYNYPATFGQGTRLEIK | 0 | 91 | 3.8 | 99 | 4.8 | 58.2 |
| H4H8046P (antibody, human IgG4, V domains shown) VH: QVQLVQSRDEVKKPGASVKVSCKASGYTFTTYGISWVRQAPGQGLEWMGWINTYNGDTNYAQKVQDRVIMTTDTSTSTAYMELRSLRSDDTAVYFCAGARPLGGRRAFDIWGQGTMVTVSS VL: DIQMTQSPSSLSASVGDRVTITCRASQGISHYLAWYQQKPGKVPKLLIYAASTLQSGVPSRFSGSGSGTDFTLTISSLQPEDVATYYCQKYNSVPWTFGQGTKVEIK | 5 | 78 | 44 | 91 | 11.8 | – |

The next lines start with the values.

| MCF7/SRE-Luc % Activation [%] | MCF7/SRE-Luc Avg % Blocking [%] | MCF7/SRE-luc Avg. IC50 [nM] | 293/hGFRα3/hRET SRE-luc % Blocking [%] | 293/hGFRα3/hRET/SRE-Luc IC50 [nM] | Internalization (% H4H8087P), HEK293/hGFRa1/hRET/SRE-Luc cells, 37 C [%] | Binder |
| --- | --- | --- | --- | --- | --- | --- |
| 3 | 74 | 55.7 | – | – | – | H4H8076P (antibody, human IgG4, V domains shown) VH: QVQLQQSGPGLVKPSQTLSLTCAISGDSVSSNSVAWNWIRQSPSRGLEWLGRTYYRSNWYNTYAVSVKSRITIDPDTSKNQFSLQLNSVTPEDTALYYCARGHRYSGSYFDYWGQGTLVTVSS VL: DIQMTQSPSSLSASVGDRVTITCRASQNINSYFNWYQQKPGKAPKLLIYAASSLQSGVPSRFSGGGSGTDFTLTISSLQPEDFATYYCQQTYTIPWTFGQGTKVEIK |
| 0 | 87 | > 100 | – | – | – | H4H8060P (antibody, human IgG4, V domains shown) VH: QVTLKESGPVLVKPTETLTLTCTVSGFSLSSARMGVSWIRQPPGKALEWLAHIFSTDEKSYSTSLKSRLSISKDTSLSQVVLIMTNMDPVDTATYYCARRTTMAPYYYYYGMDVWGHGTTVTVSS VL: AIQMTQSPASLSASVGDRVTITCRASQGIRNDLGWYQQKPGKAPKLLISAASSLQSGVPSRFSGSGSGTDFTLTISSLQPEDFATYYCLQDYKYPWTFGQGTKVEIK |
| 0 | 90 | 0.15 | 96 | 0.8 | 62.8 | H4H8079P (antibody, human IgG4, V domains shown) VH: EVQLVESGGGLVKPGGSLRLSCAASGFTFSNAWMSWVRQAPGKGLEWVGRIKSKTDGGTSEYAAPVKGRFTISRDDSKNTLFLQMNSLKSEDAAVYYCTTGRSWSDYFDFWGQGTLVTVSS VL: not shown |
| 0 | 69 | 0.14 | 96 | 0.42 | – | H4H8045P (antibody, human IgG4, V domains shown) VH: EVQLVESGGALVQPGGSLRLSCAASGFTFSNYAMTWVRQAPGMGLEWVSGISSSGASTFYADSVKGRFTISRDNSKNTLYLQMNSLRAEDTAVYYCAKEDYWGWFDYWGQGTLVTVSS VL: DIQLTQSPSFLSASVGDRVTITCWASQDVSSYLAWYQQEPGKAPKVLIYDASTLQSGVPSRFSGSGSGTEFTLTISSLQPEDFAPYYCQQLNSYPYTFGQGTKLEIK |
| 0 | 73 | 2 | – | – | – | H4H8056P (antibody, human IgG4, V domains shown) VH: QVQLVESGGGVVQPGRSLRLSCAASGFTFRNYGMHWVRQAPGKGLEWVAVKRYDGSDEYFVDSVKGRFTISRDNSKNTLFLQMNSLRVDDTAVYYCARETPITGTTLDYWGQGTLVTVSS VL: DIQMTQSPSSLSASVGDRVTITCRTSQSITNYLNWYQQKPGKAPKLLIYAASRSQSGVPSRFSGSGSGTDFTLTISSLQPEDFATYYCQQSYSTPLTFGGGTKVEIK |
| 0 | 100 | 2.6 | 98 | 4 | – | H2M7086N (antibody, mouse IgG2, V domains shown) VH: QVQLVESGGGVVQPGRSLRLSCVVSGFTFSNYGMHWVRQGPGRGLEWLALIWYDGSDKYYAESVRGRFTISRDNSKNTVYLQMNSLRAEDTAMYYCTRDRIFDYWGQGTLVTVSS VL: AIQMTQSPSSLSASVGDRVTITCRASQDIRNDLGWYQHNPGKAPNLLIYAASTLQIGVPSRFRGSGSGTDFTLTISSLQPEDFATYYCLQDFDYPLSFGGGTKVEIR |
